Assay results published in patent CN113121684A (TIANJIN JIKUN PHARMACEUTICAL TECH CO LTD, dated 2021).

Biological target: T1, 人源FSTL1蛋白 (卵泡抑素样蛋白1, Follistatin-like 1) (human, UniProt Q12841 21-308, limits assumed)
T1 construct: Soluble protein, used as analyte in SPR and as labelled ligand in MST; The construct is not described; also called 抗原; 靶点蛋白
T1 sequence (looked up): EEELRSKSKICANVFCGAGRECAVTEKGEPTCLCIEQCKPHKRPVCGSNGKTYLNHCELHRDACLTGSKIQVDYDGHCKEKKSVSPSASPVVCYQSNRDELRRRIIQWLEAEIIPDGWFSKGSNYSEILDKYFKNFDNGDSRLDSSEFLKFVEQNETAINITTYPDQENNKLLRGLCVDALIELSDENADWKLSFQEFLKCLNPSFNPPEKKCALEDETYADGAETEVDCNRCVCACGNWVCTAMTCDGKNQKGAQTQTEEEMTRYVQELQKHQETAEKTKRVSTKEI
Assay: SPR (Biacore T200), antibody amine-coupled on CM5 chip, FSTL1 protein injected

B1: 人源FSTL1中和性抗体JK07 (全长IgG) (antibody, V domains shown)
VH: QVQLVQSGAEVKKPGSTVKVSCKSSEGTFNNYGISWIRQAPGQGLEWMGGVIPIIGIGNFPQKFQDRVTMTADKFTGTAYMELSSLRSEDTAVYYCARHLGGRNSYDVFDIWGQGTLVTVSS
VL: EIVLTQSPLSLPVTLGQTASISCRSSHSLVQSNGNTYLTWFQQRPGQSPRRLIYKVSSRDSGVPDRFSGSGSGTDFTLKISRVEAEDVGVYYCMQARQTPWTFGQGTKVEIKR
notes: also called JK07抗体
  Kd: 6.17 nM
